Columns and labels:
human EPDR1 = biological target: T1, human EPDR1 (Homo sapiens, UniProt Q9UM22); test: fluorescence increase titration (ex […] nm, em […] nm); format: binding
T1 construct: residues 38-224 without native signal peptide; N-terminal His8 tag, cleavage not mentioned; codon-optimised synthetic gene, pAcGP67A; secreted from Sf9 insect cells; homodimer in crystal; three intramolecular disulfides
T1 sequence (Q9UM22 38-224): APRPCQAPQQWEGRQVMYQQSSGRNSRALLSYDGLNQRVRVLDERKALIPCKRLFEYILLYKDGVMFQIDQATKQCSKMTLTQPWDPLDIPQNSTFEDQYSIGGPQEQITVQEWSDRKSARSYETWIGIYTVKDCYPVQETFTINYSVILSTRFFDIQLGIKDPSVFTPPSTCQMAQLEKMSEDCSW

[1] = biological target: the molecule itself; test: crystal structure; mouse EPDR1 crystals, hanging drop 22 C, 0.5-1.0 M lithium sulfate, 0.5-1.0 M ammonium sulfate, 0.1 M sodium citrate pH 5.6; space group P2(1), four molecules in the asymmetric unit
[2] = biological target: the molecule itself; test: crystal structure; frog EPDR1 crystals, hanging drop 22 C, 15-20% PEG 8000, 0.2 M calcium acetate, 0.1 M sodium cacodylate pH 6.5; space group P6(5)22, one molecule in the asymmetric unit, dimer with a crystallographic symmetry mate
[3] = biological target: the molecule itself; test: crystal structure; human EPDR1 crystals, hanging drop 22 C, 15-20% PEG 3350 with 0.1 M citric acid pH 4.5 or 0.2 M NaCl, 0.1 M bis-Tris pH 5.5; space group P4(3), four molecules in the asymmetric unit; interfaces judged by PISA

O=S(=O)(O)c1cccc2cccc(Nc3ccccc3)c12 [1,8-ANS, 1-anilinonaphthalene-8-sulfonic acid]
Kd (human EPDR1): ~14 µM

B1: mouse EPDR1 (residues 38-224, N-terminal His8 tag) (natural protein, UniProt Q99M71 38-224, looked up)
chain: TPQPCQAPQQWEGRQVLYQQSSGHNNRALVSYDGLNQRVRVLDERKALIPCKRLFEYILLYKEGVMFQIEQATKQCAKIPLVESWDPLDIPQNSTFEDQYSIGGPQEQILVQEWSDRRTARSYETWIGVYTAKDCYPVQETFIRNYTVVMSTRFFDVQLGIKDPSVFTPPSTCQAAQPEKMSDGCSL
modifications: N-glycosylation at Asn130 (one NAG) and at Asn182 (two NAGs and one fucose)
notes: mouse (Mus musculus) EPDR1, UniProt Q99M71, residues 38-224, without the native N-terminal signal peptide; Three intramolecular disulfide bonds; also called MERP1; source: Sf9 insect cells (baculovirus, pAcGP67A, secreted), purified (Ni-NTA, size-exclusion chromatography)
stoichiometry N [1]: 2

B2: frog EPDR1 (Xenopus tropicalis, residues 38-220, N-terminal His8 tag) (natural protein, UniProt F6VRB7 38-220, looked up)
chain: TPCEAPLQWEGRIVLYDHNTGKNTRATVTYDAILQRIRILEEKKSFVPCKRFFEYIFLYQEAVMFQIEQVTKICSKNTLTEPWDPYDIPENSTYEDQYYIGGPGDQIPVQEWSDRKPARKYETWVGVYTVKDCYPVQETYTKNDSMTTSTRFFDIKLGISDPSVFNPPSTCEAAQPLLMSGDC
modifications: glycosylation at the two predicted Asn sites only slightly perceivable, too disordered to be modeled
notes: frog (Xenopus tropicalis) EPDR1, NCBI XP_002939463, residues 38-220, without the native N-terminal signal peptide; Three intramolecular disulfide bonds; source: Sf9 insect cells (baculovirus, pAcGP67A, secreted), purified (Ni-NTA, size-exclusion chromatography)
stoichiometry N [2]: 2

B3: human EPDR1 (residues 38-224, N-terminal His8 tag) (natural protein, UniProt Q9UM22 38-224, looked up)
chain: APRPCQAPQQWEGRQVMYQQSSGRNSRALLSYDGLNQRVRVLDERKALIPCKRLFEYILLYKDGVMFQIDQATKQCSKMTLTQPWDPLDIPQNSTFEDQYSIGGPQEQITVQEWSDRKSARSYETWIGIYTVKDCYPVQETFTINYSVILSTRFFDIQLGIKDPSVFTPPSTCQMAQLEKMSEDCSW
modifications: glycosylation at the two predicted Asn sites only slightly perceivable, too disordered to be modeled
notes: human EPDR1, UniProt Q9UM22, residues 38-224, without the native N-terminal signal peptide; Three intramolecular disulfide bonds (Cys42-Cys172, Cys88-Cys222, Cys113-Cys210); also called mammalian ependymin-related protein 1; MERP1; source: Sf9 insect cells (baculovirus, pAcGP67A, secreted), purified (Ni-NTA, size-exclusion chromatography)
stoichiometry N [3]: 2
